Positions count from the first letter of the chain named.
B1: Cross303 (antibody, human IgG1, kappa, V domains shown)
VH: EVQLLESGGGLVQPGGSLKLSCAASGFTFNTYAMNWVRQAPGKGLEWVARIRSKYNNYATYYADSVKDRFTISRDDSKNTAYLQMNNLKTEDTAVYYCVRHGMFGNSYVSWFAYWGQGTLVTVSS
VL: ELVVTQEPSLTVSPGGTVTLTCRSSTGAVTTSNYANWVQQKPGQAPRGLIGGTNKRAPGTPARFSGSLLGGKAALTLSGVQPEDEAEYYCALWYSNLWVFGGGTKLTVLR
B2: Cross308 (antibody, human IgG1, kappa, V domains shown)
VH: B1 VH with M103N, S107P
VL: B1 VL
B3: Cross307 (antibody, human IgG1, kappa, V domains shown)
VH: B1 VH with M103N, S107E
VL: B1 VL
B4: Cross310 (antibody, human IgG1, kappa, V domains shown)
VH: B1 VH with M103N, S107Y
VL: B1 VL
B5: Cross309 (antibody, human IgG1, kappa, V domains shown)
VH: B1 VH with M103N, S107V
VL: B1 VL
B6: Cross312 (antibody, human IgG1, kappa, V domains shown)
VH: B1 VH with M103N, V109H
VL: B1 VL
B7: Cross311 (antibody, human IgG1, kappa, V domains shown)
VH: B1 VH with M103N, Y108E
VL: B1 VL
B8: Cross318 (antibody, human IgG1, kappa, V domains shown)
VH: B1 VH with M103N, Y114M
VL: B1 VL
B9: Cross314 (antibody, human IgG1, kappa, V domains shown)
VH: B1 VH with M103N, V109S
VL: B1 VL
B10: Cross313 (antibody, human IgG1, kappa, V domains shown)
VH: B1 VH with M103N, V109Q
VL: B1 VL
B11: Cross316 (antibody, human IgG1, kappa, V domains shown)
VH: B1 VH with M103N, A113L
VL: B1 VL

Biological target: T1, CD3E&D protein (UniProt P04234 22-105)
T1 construct: Purchased from Acro; also called CD3 E&D antigens; CD3E&D antigen protein
Test: ELISA, coated CD3E&D protein, OD450 [panel A]
Experimental: (§1) In this example, the binding properties of the parental antibody Cross3 and the CD3 affinity-reduced antibody (the production method and the amino acid sequences of the heavy and light chains were shown in Example 1) were detected by ELISA. The CD3E&D protein was coated onto a 96-well plate by the inventors, and the strength of the signal after the addition of the antibody was used to determine the binding properties of the antibody and CD3E&D.
(§2) CD3E&D protein (purchased from Acro) was diluted to 2 μg/ml with PBS buffer, added to a 96-well plate at a volume of 100 μL/well, and placed at 4° C. overnight. The PBS buffer in the 96-well plate was aspirated, and the plate was washed 6 times with PBST (pH 7.2 PBS containing 0.1% Tween 20) buffer. Then, 200 μL/well PBS/10% BSA was added and incubated at 37° C. for 2 h for blocking. The blocking solution was removed, and the plate was washed six times with PBST. Then, the to-be-tested antibodies serially diluted with PBST/0.05% BSA, Cross3, Cross303, Cross307, Cross308, Cross309, Cross310, Cross311, Cross312, Cross313, Cross314, Cross316, Cross317, Cross318, Cross323, Cross325, Cross326, and control IgG1 (purchased from Bio-Tech) were added at 100 μL/well, and incubated at 37° C. for 1 h. The reaction system was removed, and the plate was washed 6 times with PBST. Then, the cells were incubated at 37° C. for 1 h with HRP (horseradish peroxidase)-labeled anti-human secondary antibody (Fab specific) (purchased from Sigma) serially diluted with PBST/0.05% BSA at 100 μL/well. The plate was washed six times with PBST, TMB (tetramethylbenzidine) was added at 80 μL/well and incubated at room temperature for 3 min. 4 M sulfuric acid was added at 80 μL/well to terminate the reaction. The absorbance was read at 450 nm using a microplate reader.

T1 sequence (chain, as listed by the source limits assumed, chain 1 of 2): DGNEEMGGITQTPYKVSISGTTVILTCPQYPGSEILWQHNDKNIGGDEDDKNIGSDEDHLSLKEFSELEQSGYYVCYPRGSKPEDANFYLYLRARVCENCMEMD
T1 sequence (P04234 22-105 limits assumed, chain 2 of 2): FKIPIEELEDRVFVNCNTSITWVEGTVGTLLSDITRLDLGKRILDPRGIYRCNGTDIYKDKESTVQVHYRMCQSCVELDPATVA

Binder | EC50 (read off the curve)
B1 | ~0.03 µg/mL
B2 | ~0.03 µg/mL
B3 | ~0.03 µg/mL
B4 | ~0.03 µg/mL
B5 | ~0.03 µg/mL

Biological target: T1, CD3E&D protein
Test: ELISA, coated CD3E&D protein, OD450 [panel B]
Experimental: as §1, §2

Binder | EC50 (read off the curve)
B6 | ~0.03 µg/mL
B7 | ~0.03 µg/mL
B8 | ~0.03 µg/mL
B9 | ~0.03 µg/mL
B10 | ~0.03 µg/mL
B11 | ~0.03 µg/mL

Biological target: T2, CD3 on CD8 T cells (Homo sapiens (Human), UniProt P07766 23-207)
T2 construct: Native CD3 complex on CD8 T cells among PBMCs; also called T cells (PBMCs gated with anti-human CD8 antibody)
Test: flow cytometry, CD8 T cells in PBMCs, binding ratio % [panel A]
Experimental: PBMCs were diluted with PBS to 2×10⁶/mL and added to a 1.5 ml EP tube at a volume of 100 μL/tube, 10 μL/tube of goat serum was added thereto and incubated at 4° C. for 30 min for blocking. […] 1 mL of PBS was added to the EP tube, followed by centrifugation at 3500 rpm for 5 min at 4° C. The supernatant was discarded, and the cells were washed again with PBS. After centrifugation, the supernatant was discarded, and the cells were resuspended with 100 μl/tube PBS. 1 μl/tube Alexa-647-labeled goat anti-human secondary antibody (purchased from Jackson lab) and 0.5 μl/tube PerCP-Cy5.5-labeled anti-human CD8 antibody were added and incubated at 4° C. in the dark for 30 min. The cells were washed twice with PBS, and the supernatant was discarded after centrifugation. The cells were resuspended with […] of PBS and assayed using the flow cytometry.

T2 sequence (P07766 23-207 limits assumed): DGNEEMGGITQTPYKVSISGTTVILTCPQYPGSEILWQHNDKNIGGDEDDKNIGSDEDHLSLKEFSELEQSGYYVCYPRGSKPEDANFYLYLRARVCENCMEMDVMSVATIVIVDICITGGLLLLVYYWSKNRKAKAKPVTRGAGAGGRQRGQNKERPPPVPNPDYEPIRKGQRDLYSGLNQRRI

Binder | EC50 (read off the curve)
B6 | ~0.3 µg/mL
B7 | ~0.3 µg/mL
B4 | ~0.3 µg/mL
B5 | ~0.4 µg/mL
B9 | ~0.4 µg/mL
B10 | ~0.3 µg/mL
B11 | ~0.3 µg/mL

Biological target: T1, CD3E&D protein
Test: SPR (Biacore 8K), antibody on CM5 chip, CD3 E&D antigen as analyte
Parameters: Fold change: reference not given here
Experimental: In a Biacore 8K (Cytiva) system, the antibody was diluted to 10 μg/mL in HBS-EP running buffer and coupled to a CM5 chip (Cytiva) at a flow rate of 10 μL/min.

Binder | Fold change | Kd | koff | kon
B1 | 12.7 | 2.09 nM | 0.0991 s⁻¹ | 4.75e+07 M⁻¹ s⁻¹
B6 | 21.2 | 3.5 nM | 0.0107 s⁻¹ | 3.05e+06 M⁻¹ s⁻¹
B2 | 11.8 | 1.95 nM | 0.0209 s⁻¹ | 1.07e+07 M⁻¹ s⁻¹
B3 | 21 | 3.47 nM | 0.00473 s⁻¹ | 1.36e+06 M⁻¹ s⁻¹
B7 | 27.6 | 4.55 nM | 0.00959 s⁻¹ | 2.11e+06 M⁻¹ s⁻¹
B4 | 16.8 | 2.77 nM | 0.00613 s⁻¹ | 2.22e+06 M⁻¹ s⁻¹
B8 | 20.1 | 3.32 nM | 0.0056 s⁻¹ | 1.69e+06 M⁻¹ s⁻¹
B5 | 11.1 | 1.83 nM | 0.0124 s⁻¹ | 6.76e+06 M⁻¹ s⁻¹
B9 | 26.5 | 4.37 nM | 0.00887 s⁻¹ | 2.03e+06 M⁻¹ s⁻¹
B10 | 11.6 | 1.92 nM | 0.00567 s⁻¹ | 2.96e+06 M⁻¹ s⁻¹
B11 | 20.8 | 3.43 nM | 0.00249 s⁻¹ | 728000 M⁻¹ s⁻¹

Reference: patent US20260125472A1 (HEFEI TG IMMUNOPHARMA, published 2026)
